| Protein | Aβ cleavage (ELISA-based assay of intact Aβ) (Aβ(1-40), P05067) | Aβ cleavage (ELISA-based assay of intact Aβ) (Aβ(1-42), P05067) |
| --- | --- | --- |
| endothelin-converting enzyme 2 (ECE2) (protein) GVQYHRDPSHSTCLTEACIRVAGKILESLDRGVSPCEDFYQFSCGGWIRRNPLPDGRSRWNTFNSLWDQNQAILKHLLENTTFNSSSEAEQKTQRFYLSCLQVERIEELGAQPLRDLIEKIGGWNITGPWDQDNFMEVLKAVAGTYRATPFFTVYISADSKSSNSNVIQVDQSGLFLPSRDYYLNRTANEKVLTAYLDYMEELGMLLGGRPTSTREQMQQVLELEIQLANITVPQDQRRDEEKIYHKMSISELQALAPSMDWLEFLSFLLSPLELSDSEPVVVYGMDYLQQVSELINRTEPSILNNYLIWNLVQKTTSSLDRRFESAQEKLLETLYGTKKSCVPRWQTCISNTDDALGFALGSLFVKATFDRQSKEIAEGMISEIRTAFEEALGQLVWMDEKTRQAAKEKADAIYDMIGFPDFILEPKELDDVYDGYEISEDSFFQNMLNLYNFSAKVMADQLRKPPSRDQWSMTPQTVNAYYLPTKNEIVFPAGILQAPFYARNHPKALNFGGIGVVMGHELTHAFDDQGREYDKEGNLRPWWQNESLAAFRNHTACMEEQYNQYQVNGERLNGRQTLGENIADNGGLKAAYNAYKAWLRKHGEEQQLPAVGLTNHQLFFVGFAQVWCSVRTPESSHEGLVTDPHSPARFRVLGTLSNSRDFLRHFGCPVGSPMNPGQLCEVW | ECE2 and ACE were completely inactive on both Aβ isoforms | ECE2 and ACE were completely inactive on both Aβ isoforms |
| angiotensin-converting enzyme (ACE) (protein) LDPGLQPGNFSADEAGAQLFAQSYNSSAEQVLFQSVAASWAHDTNITAENARRQEEAALLSQEFAEAWGQKAKELYEPIWQNFTDPQLRRIIGAVRTLGSANLPLAKRQQYNALLSNMSRIYSTAKVCLPNKTATCWSLDPDLTNILASSRSYAMLLFAWEGWHNAAGIPLKPLYEDFTALSNEAYKQDGFTDTGAYWRSWYNSPTFEDDLEHLYQQLEPLYLNLHAFVRRALHRRYGDRYINLRGPIPAHLLGDMWAQSWENIYDMVVPFPDKPNLDVTSTMLQQGWNATHMFRVAEEFFTSLELSPMPPEFWEGSMLEKPADGREVVCHASAWDFYNRKDFRIKQCTRVTMDQLSTVHHEMGHIQYYLQYKDLPVSLRRGANPGFHEAIGDVLALSVSTPEHLHKIGLLDRVTNDTESDINYLLKMALEKIAFLPFGYLVDQWRWGVFSGRTPPSRYNFDWWYLRTKYQGICPPVTRNETHFDAGAKFHVPNVTPYIRYFVSFVLQFQFHEALCKEAGYEGPLHQCDIYRSTKAGAKLRKVLQAGSSRPWQEVLKDMVGLDALDAQPLLKYFQPVTQWLQEQNQQNGEVLGWPEYQWHPPLPDNYPEGIDLVTDEAEASKFVEEYDRTSQVVWNEYAEANWNYNTNITTETSKILLQKNMQIANHTLKYGTQARKFDVNQLQNTTIKRIIKKVQDLERAALPAQELEEYNKILLDMETTYSVATVCHPNGSCLQLEPDLTNVMATSRKYEDLLWAWEGWRDKAGRAILQFYPKYVELINQAARLNGYVDAGDSWRSMYETPSLEQDLERLFQELQPLYLNLHAYVRRALHRHYGAQHINLEGPIPAHLLGNMWAQTWSNIYDLVVPFPSAPSMDTTEAMLKQGWTPRRMFKEADDFFTSLGLLPVPPEFWNKSMLEKPTDGREVVCHASAWDFYNGKDFRIKQCTTVNLEDLVVAHHEMGHIQYFMQYKDLPVALREGANPGFHEAIGDVLALSVSTPKHLHSLNLLSSEGGSDEHDINFLMKMALDKIAFIPFSYLVDQWRWRVFDGSITKENYNQEWWSLRLKYQGLCPPVPRTQGDFDPGAKFHIPSSVPYIRYFVSFIIQFQFHEALCQAAGHTGPLHKCDIYQSKEAGQRLATAMKLGFSRPWPEAMQLITGQPNMSASAMLSYFKPLLDWLRTENELHGEKLGWPQYNWTPNSARSEGPLPDSGRVSFLGLDLDAQQARVGQWL | ECE2 and ACE were completely inactive on both Aβ isoforms | ECE2 and ACE were completely inactive on both Aβ isoforms |

Source: patent publication US20260183373
